Experimental data as given in patent US20190330362A1 (GOVERNING COUNCIL OF THE UNIVERSITY OF TORONTO, published 2019).

Key:
[1] = biological target: T1, human CD133 (GenBank Accession O43490) (human, UniProt O43490 20-865); assay: flow cytometry, serial dilutions on HEK293-CD133 cells, anti-human Fab'2 secondary antibody
T1 construct: Full-length human CD133 overexpressed in HEK293-CD133 cells, or endogenous on Caco-2, HPAC, PL45, RWP-1 and GBM cells; In the Western blots the same protein is denatured in whole cell lysate; also called Prominin-1; cell surface CD133
T1 sequence: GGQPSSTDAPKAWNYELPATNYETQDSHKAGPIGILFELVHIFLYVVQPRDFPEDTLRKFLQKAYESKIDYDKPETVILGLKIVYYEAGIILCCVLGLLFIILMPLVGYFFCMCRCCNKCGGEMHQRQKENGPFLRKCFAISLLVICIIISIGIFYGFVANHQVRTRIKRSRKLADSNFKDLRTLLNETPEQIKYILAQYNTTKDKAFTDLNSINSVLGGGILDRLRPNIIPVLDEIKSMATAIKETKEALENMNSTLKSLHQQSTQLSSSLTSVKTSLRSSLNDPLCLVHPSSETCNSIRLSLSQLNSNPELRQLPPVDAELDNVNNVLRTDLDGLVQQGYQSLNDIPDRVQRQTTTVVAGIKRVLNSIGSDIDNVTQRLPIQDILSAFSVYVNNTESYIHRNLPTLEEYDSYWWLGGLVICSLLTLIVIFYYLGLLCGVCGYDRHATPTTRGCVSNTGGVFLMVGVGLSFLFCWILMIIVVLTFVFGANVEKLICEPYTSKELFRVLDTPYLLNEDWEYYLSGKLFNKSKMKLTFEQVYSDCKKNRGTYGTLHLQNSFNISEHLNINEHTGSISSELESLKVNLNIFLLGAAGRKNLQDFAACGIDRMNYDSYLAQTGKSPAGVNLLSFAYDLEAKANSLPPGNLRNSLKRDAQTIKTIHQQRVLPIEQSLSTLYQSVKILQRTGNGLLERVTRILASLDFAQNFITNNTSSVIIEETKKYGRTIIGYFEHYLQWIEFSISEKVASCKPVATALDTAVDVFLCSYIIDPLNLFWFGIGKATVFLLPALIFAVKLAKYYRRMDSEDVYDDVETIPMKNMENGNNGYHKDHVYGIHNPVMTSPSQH

[2] = biological target: T1, human CD133 (GenBank Accession O43490); assay: flow cytometry on CD133-expressing cells (cell line not given), IgG alone, secondary antibody against human Fc
[3] = biological target: T1, human CD133 (GenBank Accession O43490); assay: competitive flow cytometry on CD133-expressing cells first incubated with 25 nM Fab RW01, secondary antibody against human Fc
[4] = biological target: T1, human CD133 (GenBank Accession O43490); assay: cell-based phage ELISA (OD450)
Experimental: Following cell selections, round four output phage for each library was plated for single colonies. These colonies were grown up in an overnight culture and tested for binding to cells by cell-based ELISA. The plates were read and OD450 nm was detected and recorded. The assay measured binding of clones to CD133-overexpressing HEK293-CD133 cells (under “CD133” column headers) vs parental HEK293 cells (under “HEK293” column headers).
After four rounds of positive and negative selection, serial dilutions were made of the round four output phage (10E-1 to 10E-3) for each library and used to infect XL1-blue cells. The infected cells were plated for isolating single colonies to be used in a clonal cell-based ELISA for isolating CD133-specific binders.

B1: IgG RW01 (antibody, V domains shown)
VH: EVQLVESGGGLVQPGGSLRLSCAASGFNIYYYGSMHWVRQAPGKGLEWVASISPYYGSTYYADSVKGRFTISADTSKNTAYLQMNSLRAEDTAVYYCARHASSGYGHYAVYGIDYWGQGTLVTVSS
VL: DIQMTQSPSSLSASVGDRVTITCRASQGSSYVAWYQQKPGKAPKLLIYSASYLYSGVPSRFSGSRSGTDFTLTISSLQPEDFATYYCQQGVWSLITFGQGTKVEIKR
notes: also called RW01 IgG; lIgG RW01
[1]
  EC50: 2.5 nM

B2: IgG RW03 (antibody, V domains shown)
VH: EVQLVESGGGLVQPGGSLRLSCAASGFNLSSSSIHWVRQAPGKGLEWVAYIYPYYSYTYYADSVKGRFTISADTSKNTAYLQMNSLRAEDTAVYYCARFGSVAGFDYWGQGTLVTVSS
VL: DIQMTQSPSSLSASVGDRVTITCRASQSVSSAVAWYQQKPGKAPKLLIYSASSLYSGVPSRFSGSRSGTDFTLTISSLQPEDFATYYCQQYSHAGHLFTFGQGTKVEIKR
notes: Human IgG1 (hG1) with kappa light chain (hK); variable region of Fab RW03 (Library F); also called RW03 IgG; lIgG RW03
[1]
  EC50: 0.5 nM
[2]
  EC50 (read off the curve): ~1 nM
[3]
  EC50 (read off the curve): ~1 nM

B3: phage-Fab RW03 (Fab, V domains shown)
VH: EVQLVESGGGLVQPGGSLRLSCAASGFNLSSSSIHWVRQAPGKGLEWVAYIYPYYSYTYYADSVKGRFTISADTSKNTAYLQMNSLRAEDTAVYYCARFGSVAGFDYWGQGTLVTVSS
VL: DIQMTQSPSSLSASVGDRVTITCRASQSVSSAVAWYQQKPGKAPKLLIYSASSLYSGVPSRFSGSRSGTDFTLTISSLQPEDFATYYCQQYSHAGHLFTFGQGTKVEIK
notes: also called phage-Fab clone RW03; RW03 clone
[4]
  fold binding to HEK293-CD133 cells vs HEK293 cells: ≥ 1.5 fold
